Experimental data: article PMC7335073, “Comprehensive structure-function characterization of DNMT3B and DNMT3A reveals distinctive de novo DNA methylation mechanisms” (Nature Communications, 2020)

Biological target: the molecule itself
Test: crystal structure; covalent DNMT3B–DNMT3L–DNA complexes (25-mer Zebularine DNA: CGA, CGT or CAG) with SAH; proteins co-expressed in E. coli and purified as a complex; hanging-drop vapor diffusion, 0.1 M Tris-HCl pH 8.0, MgCl2, PEG, 0.2 mM AdoHcy, 4 °C or 16 °C

| Protein | binding result |
| --- | --- |
| MTase domain of human DNMT3B (residues 562–853) (domain or fragment, UniProt Q9UBC3-1 562-853, looked up, catalytic cysteine C651 covalently linked to the Zebularine of the DNA, Two copies stand in the DNMT3L–DNMT3B–DNMT3B–DNMT3L heterotetramer; also called hDNMT3B; WT DNMT3B; source: E. coli BL21 DE3 (RIL), co-expressed with DNMT3L, purified (Ni-NTA, Heparin HP, SEC; after DNA cross-linking HiTrap Q XL, SEC); not shown: His6, N-terminal, cleaved; SUMO, N-terminal, cleaved) KLYPAIPAARRRPIRVLSLFDGIATGYLVLKELGIKVGKYVASEVCEESIAVGTVKHEGNIKYVNDVRNITKKNIEEWGPFDLVIGGSPCNDLSNVNPARKGLYEGTGRLFFEFYHLLNYSRPKEGDDRPFFWMFENVVAMKVGDKRDISRFLECNPVMIDAIKVSAAHRARYFWGNLPGMNRPVIASKNDKLELQDCLEYNRIAKLKKVQTITTKSNSIKQGKNQLFPVVMNGKEDVLWCTELERIFGFPVHYTDVSNMGRGARQKLLGRSWSVPVIRHLFAPLKDYFACE | binds |
| K777A-mutated MTase domain of human DNMT3B (residues 562–853) (domain or fragment, UniProt Q9UBC3-1 562-853, looked up, catalytic cysteine C651 covalently linked to the Zebularine of the DNA, also called K777A DNMT3B; source: E. coli BL21 DE3 (RIL), co-expressed with DNMT3L, purified (Ni-NTA, Heparin HP, SEC; after DNA cross-linking HiTrap Q XL, SEC); not shown: His6, N-terminal, cleaved; SUMO, N-terminal, cleaved) KLYPAIPAARRRPIRVLSLFDGIATGYLVLKELGIKVGKYVASEVCEESIAVGTVKHEGNIKYVNDVRNITKKNIEEWGPFDLVIGGSPCNDLSNVNPARKGLYEGTGRLFFEFYHLLNYSRPKEGDDRPFFWMFENVVAMKVGDKRDISRFLECNPVMIDAIKVSAAHRARYFWGNLPGMNRPVIASKNDKLELQDCLEYNRIAKLKKVQTITTASNSIKQGKNQLFPVVMNGKEDVLWCTELERIFGFPVHYTDVSNMGRGARQKLLGRSWSVPVIRHLFAPLKDYFACE | binds |
